# Reference: IntAct's records for PubMed 19913487
# B1: ATP-dependent RNA helicase DDX3X (Homo sapiens), O00571 (parent)
# chain: MSHVAVENALGLDQQFAGLDLNSSDNQSGGSTASKGRYIPPHLRNREATKGFYDKDSSGWSSSKDKDAYSSFGSRSDSRGKSSFFSDRGSGSRGRFDDRGRSDYDGIGSRGDRSGFGKFERGGNSRWCDKSDEDDWSKPLPPSERLEQELFSGGNTGINFEKYDDIPVEATGNNCPPHIESFSDVEMGEIIMGNIELTRYTRPTPVQKHAIPIIKEKRDLMACAQTGSGKTAAFLLPILSQIYSDGPGEALRAMKENGRYGRRKQYPISLVLAPTRELAVQIYEEARKFSYRSRVRPCVVYGGADIGQQIRDLERGCHLLVATPGRLVDMMERGKIGLDFCKYLVLDEADRMLDMGFEPQIRRIVEQDTMPPKGVRHTMMFSATFPKEIQMLARDFLDEYIFLAVGRVGSTSENITQKVVWVEESDKRSFLLDLLNATGKDSLTLVFVETKKGADSLEDFLYHEGYACTSIHGDRSQRDREEALHQFRSGKSPILVATAVAARGLDISNVKHVINFDLPSDIEEYVHRIGRTGRVGNLGLATSFFNERNINITKDLLDLLVEAKQEVPSWLENMAYEHHYKGSSRGRSKSSRFSGGFGARDYRQSSGASSSSFSSSRASSSRSGGGGHGSSRGFGGGGYGGFYNSDGYGGNYNSQGVDWWGN
# Variants of: B1
# Settings: with pg044_vaccw OPG044, P68466
row,Variant,effect of a mutation on the interaction
1,F84A;F85A,disrupting interaction
